Experimental data taken from article PMC5039417 (2016).

Target: HLA-A*0201 molecules on T2 cells (MHC class I/β2-microglobulin complex) (human (endogenous in T2) | )
Test: FACS; competition with F1-peptide on T2 cells

IC50: 0.419 µg/mL
Binder: SLSYTNPAV [P7:SLSYTNPAV, MUC1 cytoplasmic tail peptide]
